Data from patent publication US5196309A, “Characterization of platelet aggregation disorders” (The Scripps Research Institute, priority 1990, dated 1993).
Where no end group is shown, it is not given here.

Assays:
[1] = tested on: platelets; assay: 125I-fibrinogen binding to platelets; details: 10 uM ADP; 37 degrees, 30 minutes
Procedure: Fibrinogen was isolated and labelled with ^125 I by standard methods as described by Marguerie et al., J. Biol. Chem., 255:154-161 (1980) to form ^125 I-Fg. Thereafter, the binding of ^125 I-Fg to platelets was assayed as described previously. Marguerie et al., J. Biol. Chem., 255:154-161 (1980). Binding was initiated by the admixture of a million resting platelets in the presence or absence of 10 micromolar adenosine diphosphate (ADP) to radiolabelled fibrinogen at varying concentrations from 0.01 to 1 nanomolar (nM) and incubation at 37 degrees for 30 minutes. Bound fibrinogen was separated from free fibrinogen by centrifugation of the platelet-fibrinogen admixture through 0.3 ml of 20% sucrose and the amount of radiolabelled fibrinogen associated with the cell pellet determined by gamma detection.

[2] = molecular target: T1, GPIIb-IIIa on Cam platelets (Homo sapiens, UniProt P05106+P08514, D145Y); assay: Flow cytometry of platelet surface GPIIb-IIIa, Cam variant thrombasthenia platelets; type: binding
T1 construct: from tissue; host or cells: platelets in platelet-rich plasma from venous blood of two Cam variant siblings
Source text: FIGS. 2A through 2H show a flow cytometric analysis of the deficit in Cam variant of thrombasthenia. Shown are histograms with the log of fluorescence intensity on the abscissa and cell number on the ordinate. The reporting antibody is indicated in the left hand column. Cam platelets are shown in FIGS. 2A, 2C, 2E and 2G and the normal control in FIGS. 2B, 2D, 2F and 2H. Each column of figures contains a legend indicating the added agonist, peptide, or antibody. […] Similar data were obtained with other antibodies to GPIIb-IIIa (7E3, 10E5, 4F10) and an antibody to GPIIb (Tab). The Cam variant data shown are representative of determinations on two affected male siblings with identical results.
Based on the model depicted in FIG. 1, abnormal platelet aggregation can arise from a defect in the activation of platelet fibrinogen receptors, a defect in fibrinogen binding per se, or a defect in the postoccupancy events required for optimal aggregation. The potential usefulness of this model was tested by studying two patients with persistent and severe defects in platelet aggregation. To quantitate fibrinogen receptor activation and ligand binding, a fluorescein-labeled MoAb (PAC1) which specifically recognizes the activated form of GPIIb-IIIa, was employed (Shattil et al., J. Biol. Chem., 260:11107 (1985)). Antibody binding was measured in small (5 μL) samples of platelet rich plasma by flow cytometry.
Platelet rich plasma was obtained by taking venous blood from patients and controls who had not ingested medications for at least 10 days, anticoagulating with 1/10 volume of 3.8% sodium citrate, and sedimentating red and white blood cells at 180 g for 20 minutes at room temperature. Immediately thereafter, 5-μL aliquots of platelet-rich plasma were added to polypropylene tubes containing a fluorescein isothiocyanate-conjugated monoclonal antibody (10^-9 to 10^-6 mol/L) in Tyrode's buffer (1% bovine serum albumin, 2 mmol/L MgCl2, 137.5 mmol/L NaCl, 12 mmol/L NaHCO3, 2.6 mmol/L KCl, pH 7.4). Samples were incubated without stirring in a total volume of 50 μL for 15 minutes at room temperature with agonists and peptides as indicated. Samples were then diluted to 0.5 mL with Tyrode's buffer and analyzed on a FACStar flow cytometer (Bectin-Dickinson Immunocytometry Systems, Mountain View, Calif.). Light scatter and fluorescence signals were acquired at logarithmic gain, and 10,000 platelets in each sample were analyzed. Results are expressed as mean platelet fluorescence intensity in arbitrary fluorescence units or as histograms of log platelet fluorescence intensity in arbitrary units on the abscissa and platelet number on the ordinate.

[3] = molecular target: T2, GPIIb-IIIa on normal platelets (Homo sapiens, UniProt P05106+P08514); assay: Flow cytometry of platelet surface GPIIb-IIIa, normal (control) platelets; type: binding
T2 construct: Analysis of Platelet Surface GPIIb-IIIa by Flow Cytometry; from tissue; host or cells: platelets in platelet-rich plasma from venous blood of controls
Procedure: (§1) Samples were incubated without stirring in a total volume of 50 μL for 15 minutes at room temperature with agonists and peptides as indicated. Samples were then diluted to 0.5 mL with Tyrode's buffer and analyzed on a FACStar flow cytometer (Bectin-Dickinson Immunocytometry Systems, Mountain View, Calif.). Light scatter and fluorescence signals were acquired at logarithmic gain, and 10,000 platelets in each sample were analyzed. Results are expressed as mean platelet fluorescence intensity in arbitrary fluorescence units or as histograms of log platelet fluorescence intensity in arbitrary units on the abscissa and platelet number on the ordinate.

[4] = tested on: Cam GPIIb-IIIa; assay: KYGRGDS affinity chromatography of surface-labeled platelet lysate, Cam platelets; type: binding, human; details: Cam extract, 240 μg GPIIb-IIIa in starting extract; eluted with GRGDSP
Procedure: (§2) To directly examine the ligand binding function of Cam GPIIb-IIIa, extracts of ^125 I surface-labeledplatelets were subjected to affinity chromatography using an immobilized RGD peptide.
(§3) Platelets were isolated from acid-citrate dextrose anticoagulated human blood by differential centrifugation followed by gel filtration on Sepharose 2B (Ginsberg et al., Blood, 69:58 (1987)). Lysates of surface-labeled platelets were analyzed by KYGRGDS affinity chromatography as described by Lam et al., J. Biol. Chem., 262:947 (1987). Briefly, intact platelets were radioiodinated by the lactoperoxidase-H2 O2 method then resuspended to 2×10^8 platelets/mL and solubilized in lysis buffer containing 10 mmol/L N-2-hydroxyethylpiperazine-N'-2-ethanesulfonic acid (HEPES), pH 7.5, 0.15 mol/L NaCl, 1 mmol/L CaCl2, 1 mmol/L MgCl2, 0.1 mmol/L leupeptin, 1 mmol/L phenylmethanesulfonylfluoride (PMSF), 10 mmol/L N-ethylmaleimide, and 50 mmol/L octylglucoside. […] Under these conditions approximately 10% of normal GPIIb-IIIa is bound and eluted.
(§4) The GPIIb-IIIa content in the starting material and in the column fractions was quantitated by use of a polyclonal anti-GPIIb-IIIa antibody in an ELISA assay. The control extract contained 332 μg; the Cam individual contained 240 μg in the starting extract. The eluted fractions from the control extract contained 20 μg GPIIb-IIIa. […]

[5] = tested on: normal GPIIb-IIIa; assay: KYGRGDS affinity chromatography of surface-labeled platelet lysate, normal platelets; type: binding, human
Procedure: as §2, §3, §4

[6] = tested on: GPIIb-IIIa; details: cited from earlier work
[7] = tested on: GPIIb-IIIa on MPD platelets; assay: Flow cytometry of platelet surface GPIIb-IIIa, myelofibrosis (MPD) patient platelets; type: binding, human
Procedure: The disclosing antibody is indicated in the left hand column. In each column, the legend indicates the added agonist or peptide. Agonist and peptide concentrations were identical to those in FIGS. 2A-2H. Phorbol myristate acetate (PMA) was present in a final concentration of 50 nmol/L. Anti-TSP refers to the binding of a MoAb against thrombospondin.
as §1

[8] = tested on: platelets; details: cited from earlier work

Nc1ncnc2c1ncn2[C@@H]1O[C@H](COP(=O)(O)OP(=O)(O)O)[C@@H](O)[C@H]1O [ADP, adenosine diphosphate]
Increase in number of 125I-Fg molecules bound to platelets [1]: at least a three fold increase

Gly-Arg-Gly-Asp-Ser-Pro [GRGDSP]
PMI-1 binding, mean fluorescence intensity ([2]; Cam platelets treated with 200 μmol/L GRGDSP): 107 fluorescence units
anti-LIBS1 binding, mean fluorescence ([2]; Cam platelets with GRGDSP 200 μmol/L): 25 U
Change in PMI-1 binding in response to GRGDSP ([2]; Cam platelets, 200 μmol/L GRGDSP): no increase
Change in anti-LIBS1 binding caused by GRGDSP ([2]; Cam platelets, GRGDSP 200 μmol/L): no increase
Fluorescence Increase (LIBS-1 expression, anti-LIBS 1 binding), Cam ([2]; [GRGDSP] 2 μM, Cam platelets): 3
Fluorescence Increase (LIBS-1 expression, anti-LIBS 1 binding), Cam ([2]; [GRGDSP] 4 μM, Cam platelets): 3
Fluorescence Increase (LIBS-1 expression, anti-LIBS 1 binding), Cam ([2]; [GRGDSP] 10 μM, Cam platelets): 3
Fluorescence Increase (LIBS-1 expression, anti-LIBS 1 binding), Cam ([2]; [GRGDSP] 40 μM, Cam platelets): 3
Fluorescence Increase (LIBS-1 expression, anti-LIBS 1 binding), Cam ([2]; [GRGDSP] 200 μM, Cam platelets): 6
Fluorescence Increase (LIBS-1 expression, anti-LIBS 1 binding), Normal ([3]; [GRGDSP] 2 μM, normal platelets): 20
Fluorescence Increase (LIBS-1 expression, anti-LIBS 1 binding), Normal ([3]; [GRGDSP] 4 μM, normal platelets): 31
Fluorescence Increase (LIBS-1 expression, anti-LIBS 1 binding), Normal ([3]; [GRGDSP] 10 μM, normal platelets): 48
Fluorescence Increase (LIBS-1 expression, anti-LIBS 1 binding), Normal ([3]; [GRGDSP] 40 μM, normal platelets): 70
Fluorescence Increase (LIBS-1 expression, anti-LIBS 1 binding), Normal ([3]; [GRGDSP] 200 μM, normal platelets): 106
PMI-1 binding, mean fluorescence intensity ([3]; normal platelets treated with 200 μmol/L GRGDSP): 151 fluorescence units
anti-LIBS1 binding, mean fluorescence ([3]; normal platelets with GRGDSP 200 μmol/L): 205 U
Increase in PMI-1 binding ([3]; normal platelets, 200 μmol/L GRGDSP): 2.5 fold
Increase in anti-LIBS1 binding caused by peptide ([3]; normal platelets, GRGDSP 200 μmol/L): fourfold increase

KYGRGDS [Lys-Tyr-Gly-Arg-Gly-Asp-Ser]
GPIIb-IIIa in eluted fractions (ELISA) [4]: 2.6 µg
GPIIb-IIIa in eluted fractions (ELISA) ([5]; control extract, 332 μg GPIIb-IIIa in starting extract, eluted with GRGDSP): 20 µg
Share of normal GPIIb-IIIa bound to KYGRGDS-Sepharose and eluted ([5]; lysate 12 hours at 4° C., eluted with 1 mmol/L GRGDSP): approximately 10%

LGGAKQAGDV [gamma(402-411)]
anti-LIBS1 binding, fluorescence ([2]; Cam platelets with gamma(402-411) 400 μmol/L): 31 U
Change in anti-LIBS1 binding caused by gamma(402-411) ([2]; Cam platelets, gamma(402-411) 400 μmol/L): failed to increase
anti-LIBS1 binding, fluorescence ([3]; control platelets with gamma(402-411) 400 μmol/L): 201 fluorescence U

PAC 1
PAC1 fluorescence of PMA-activated Cam platelets ([2]; 50 nmol/L phorbol myristate acetate (PMA)): no increase
PAC1 binding to ADP-activated Cam platelets ([2]; ADP 100 μmol/L): complete lack of binding
Effect of Peptides (RGD or fibrinogen gamma chain C-terminal peptides) on antibody binding [6]: Decrease
Expression of PAC1 binding sites on stimulated MPD platelets ([7]; 50 μmol/L epinephrine (not shown)): did not express PAC1 binding sites
Expression of PAC1 binding sites on stimulated MPD platelets ([7]; 10 μm ADP): did not express PAC1 binding sites
PAC1 binding to MPD platelets in response to PMA ([7]; PMA 50 nmol/L): bound
Fibrinogen Binding (effect of antibody on fibrinogen binding to platelets) [8]: Decrease
